From the Human Domainome abundance scans (Beltran et al. 2025)
± gives the uncertainty stated by the source.

B1: Cold shock protein CspB, residues 1 to 66; numbered along this chain, P41016 (parent)
chain: MQRGKVKWFNNEKGYGFIEVEGGSDVFVHFTAIQGEGFKTLEEGQEVSFEIVQGNRGPQAANVVKL

Variants of: B1
Assay: abundance fitness (aPCA) (normalised: wild type 0, dead -1); higher = more abundant; growth selection in yeast, the domain comes from the species named
Details: Bacillus caldolyticus

Going from V63R to V63G, the abundance fitness falls from -0.71 ± 0.042 to -0.873 ± 0.062.

Going from V63F to V63T, the abundance fitness rises from -1.01 ± 0.085 to -0.432 ± 0.053.

V63H and V63K are within error of each other in abundance fitness: -0.771 ± 0.1 for the first, -0.721 ± 0.071 for the second.

First: V63C
Second: V63A
The abundance fitness of the first is higher: 0.009 ± 0.083 for the first, -0.205 ± 0.044 for the second.

Compared with V63M, V63I is higher in abundance fitness: -0.283 ± 0.05 for the first, -0.126 ± 0.054 for the second.

Compared with V63Q, V63E is higher in abundance fitness: -1.13 ± 0.18 for the first, -0.782 ± 0.077 for the second.

Going from V63L to V63P, the abundance fitness falls from -0.018 ± 0.03 to -0.643 ± 0.052.

Compared with V63N, V63Y is lower in abundance fitness: -0.528 ± 0.073 for the first, -0.798 ± 0.082 for the second.

Going from V63W to V64N, the abundance fitness rises from -0.774 ± 0.07 to -0.02 ± 0.087.

V64W and V64D are within error of each other in abundance fitness: -0.042 ± 0.053 for the first, -0.057 ± 0.072 for the second.

V64A and V64E are within error of each other in abundance fitness: -0.03 ± 0.044 for the first, -0.003 ± 0.056 for the second.

V64H and V64G are within error of each other in abundance fitness: -0.057 ± 0.099 for the first, -0.042 ± 0.035 for the second.

V64K and V64L are within error of each other in abundance fitness: -0.029 ± 0.068 for the first, -0.015 ± 0.038 for the second.

V64M and V64C are within error of each other in abundance fitness: -0.064 ± 0.066 for the first, 0.032 ± 0.07 for the second.

V64R and V64F are within error of each other in abundance fitness: -0.003 ± 0.035 for the first, 0.011 ± 0.046 for the second.

V64T and V64Q are within error of each other in abundance fitness: -0.012 ± 0.067 for the first, 0.032 ± 0.088 for the second.

V64S and V64Y are within error of each other in abundance fitness: -0.019 ± 0.04 for the first, -0.054 ± 0.059 for the second.

First: V64P
Second: S48H
The abundance fitness of the first is lower: -0.731 ± 0.089 for the first, -0.023 ± 0.068 for the second.

Compared with S48E, S48P is lower in abundance fitness: 0.027 ± 0.054 for the first, -0.847 ± 0.061 for the second.

S48Q and S48T are within error of each other in abundance fitness: -0.007 ± 0.052 for the first, 0.002 ± 0.047 for the second.

S48C and S48A are within error of each other in abundance fitness: -0.047 ± 0.061 for the first, 0.003 ± 0.041 for the second.

S48I and S48F are within error of each other in abundance fitness: -0.028 ± 0.074 for the first, -0.008 ± 0.063 for the second.

S48W and S48M are within error of each other in abundance fitness: -0.074 ± 0.066 for the first, 0.026 ± 0.05 for the second.

S48D and S48V are within error of each other in abundance fitness: 0.004 ± 0.06 for the first, -0.059 ± 0.041 for the second.

S48L and S48Y are within error of each other in abundance fitness: -0.035 ± 0.032 for the first, 0.022 ± 0.069 for the second.

S48G and S48N are within error of each other in abundance fitness: -0.005 ± 0.043 for the first, -0.099 ± 0.089 for the second.

K65E and K65I are within error of each other in abundance fitness: -0.03 ± 0.084 for the first, 0.04 ± 0.076 for the second.

K65D and K65L are within error of each other in abundance fitness: -0.019 ± 0.082 for the first, -0.052 ± 0.037 for the second.

K65V and K65H are within error of each other in abundance fitness: -0.015 ± 0.056 for the first, 0.014 ± 0.06 for the second.

First: K65Y
Second: K65S
The abundance fitness of the first is lower: -0.13 ± 0.047 for the first, -0.015 ± 0.035 for the second.

K65C and K65M are within error of each other in abundance fitness: -0.035 ± 0.049 for the first, -0.078 ± 0.048 for the second.

K65T and K65A are within error of each other in abundance fitness: -0.003 ± 0.055 for the first, 0.002 ± 0.051 for the second.

K65Q and K65G are within error of each other in abundance fitness: -0.023 ± 0.06 for the first, 0.023 ± 0.074 for the second.

First: K65F
Second: K65P
The abundance fitness of the first is lower: -0.098 ± 0.05 for the first, 0.025 ± 0.064 for the second.

First: K65R
Second: K65W
The abundance fitness of the first is higher: 0.004 ± 0.044 for the first, -0.145 ± 0.055 for the second.

Compared with K65N, G57F is lower in abundance fitness: -0.051 ± 0.057 for the first, -0.237 ± 0.052 for the second.

Compared with G57Y, G57I is lower in abundance fitness: -0.127 ± 0.058 for the first, -0.231 ± 0.045 for the second.

Compared with G57T, G57P is lower in abundance fitness: -0.089 ± 0.049 for the first, -0.278 ± 0.042 for the second.

G57A and G57Q are within error of each other in abundance fitness: -0.145 ± 0.042 for the first, -0.116 ± 0.048 for the second.

Compared with G57W, G57R is higher in abundance fitness: -0.256 ± 0.049 for the first, -0.089 ± 0.036 for the second.

Going from G57K to G57E, the abundance fitness falls from -0.081 ± 0.054 to -0.213 ± 0.045.

G57N and G57H are within error of each other in abundance fitness: -0.223 ± 0.066 for the first, -0.195 ± 0.061 for the second.

Going from G57D to G57L, the abundance fitness rises from -0.249 ± 0.051 to -0.158 ± 0.034.

G57V and G57C are within error of each other in abundance fitness: -0.238 ± 0.029 for the first, -0.163 ± 0.055 for the second.

G57S and R56A are within error of each other in abundance fitness: -0.093 ± 0.036 for the first, -0.069 ± 0.049 for the second.

R56T and R56W are within error of each other in abundance fitness: -0.142 ± 0.055 for the first, -0.207 ± 0.045 for the second.

R56K and R56I are within error of each other in abundance fitness: 0.003 ± 0.057 for the first, -0.143 ± 0.093 for the second.

R56C and R56H are within error of each other in abundance fitness: -0.097 ± 0.057 for the first, -0.069 ± 0.059 for the second.

R56V and R56P are within error of each other in abundance fitness: -0.1 ± 0.04 for the first, -0.062 ± 0.048 for the second.

R56G and R56M are within error of each other in abundance fitness: -0.081 ± 0.039 for the first, -0.068 ± 0.064 for the second.

R56Q and R56S are within error of each other in abundance fitness: -0.044 ± 0.062 for the first, -0.088 ± 0.038 for the second.

R56N and R56E are within error of each other in abundance fitness: 0.018 ± 0.1 for the first, -0.066 ± 0.053 for the second.

R56F and R56Y are within error of each other in abundance fitness: -0.181 ± 0.05 for the first, -0.131 ± 0.065 for the second.

R56D and V52N are within error of each other in abundance fitness: -0.175 ± 0.079 for the first, -0.02 ± 0.093 for the second.

V52W and V52R are within error of each other in abundance fitness: -0.053 ± 0.048 for the first, 0.009 ± 0.032 for the second.

V52T and V52H are within error of each other in abundance fitness: 0.012 ± 0.027 for the first, -0.033 ± 0.075 for the second.

V52S and V52D are within error of each other in abundance fitness: -0.018 ± 0.039 for the first, -0.092 ± 0.072 for the second.

V52G and V52A are within error of each other in abundance fitness: -0.029 ± 0.035 for the first, 0.029 ± 0.037 for the second.

V52I and V52M are within error of each other in abundance fitness: -0.018 ± 0.048 for the first, 0.038 ± 0.059 for the second.

V52E and V52Q are within error of each other in abundance fitness: -0.004 ± 0.037 for the first, -0.001 ± 0.054 for the second.

V52Y and V52C are within error of each other in abundance fitness: -0.043 ± 0.092 for the first, -0.014 ± 0.077 for the second.

First: V52F
Second: V52P
The abundance fitness of the first is higher: -0.029 ± 0.064 for the first, -0.514 ± 0.048 for the second.

Going from F49V to F49T, the abundance fitness falls from -0.076 ± 0.03 to -0.27 ± 0.045.

Compared with F49L, F49D is lower in abundance fitness: -0.007 ± 0.029 for the first, -1.08 ± 0.16 for the second.

First: F49I
Second: F49S
The abundance fitness of the first is higher: -0.123 ± 0.08 for the first, -0.577 ± 0.045 for the second.

F49N and F49Q are within error of each other in abundance fitness: -1.05 ± 0.21 for the first, -0.893 ± 0.094 for the second.

Compared with F49K, F49M is higher in abundance fitness: -1.08 ± 0.13 for the first, -0.002 ± 0.044 for the second.

First: F49Y
Second: F49P
The abundance fitness of the first is higher: -0.037 ± 0.083 for the first, -0.984 ± 0.079 for the second.

Compared with F49R, F49H is higher in abundance fitness: -0.968 ± 0.088 for the first, -0.445 ± 0.09 for the second.

First: F49W
Second: F49C
The abundance fitness of the first is lower: -0.69 ± 0.074 for the first, -0.021 ± 0.089 for the second.

Compared with F49E, E50D is higher in abundance fitness: -0.965 ± 0.11 for the first, 0.016 ± 0.065 for the second.

E50Q and E50C are within error of each other in abundance fitness: 0 ± 0.052 for the first, -0.007 ± 0.053 for the second.

E50K and E50F are within error of each other in abundance fitness: -0.008 ± 0.066 for the first, -0.029 ± 0.051 for the second.

E50I and E50Y are within error of each other in abundance fitness: -0.049 ± 0.066 for the first, 0.005 ± 0.059 for the second.

E50R and E50S are within error of each other in abundance fitness: -0.002 ± 0.036 for the first, -0.029 ± 0.036 for the second.

E50H and E50V are within error of each other in abundance fitness: -0.07 ± 0.076 for the first, -0.018 ± 0.036 for the second.

First: E50P
Second: E50G
The abundance fitness of the first is lower: -0.964 ± 0.11 for the first, -0.032 ± 0.032 for the second.

E50L and E50M are within error of each other in abundance fitness: -0.016 ± 0.035 for the first, -0.017 ± 0.058 for the second.

E50T and E50W are within error of each other in abundance fitness: 0.01 ± 0.06 for the first, -0.013 ± 0.043 for the second.

N62I and N62Q are within error of each other in abundance fitness: -0.299 ± 0.39 for the first, 0.152 ± 0.43 for the second.

N62D and G54E are within error of each other in abundance fitness: 0.189 ± 0.42 for the first, -0.106 ± 0.059 for the second.

G54K and G54M are within error of each other in abundance fitness: -0.038 ± 0.098 for the first, -0.236 ± 0.18 for the second.

Going from G54I to G54R, the abundance fitness rises from -0.227 ± 0.13 to -0.044 ± 0.037.

G54T showed an abundance fitness of 0.01 ± 0.068.
